The chains are these.
B1: T-box transcription factor TBX21 (Mus musculus), Q9JKD8 (parent)
chain: MGIVEPGCGDMLTGTEPMPSDEGRGPGADQQHRFFYPEPGAQDPTDRRAGSSLGTPYSGGALVPAAPGRFLGSFAYPPRAQVAGFPGPGEFFPPPAGAEGYPPVDGYPAPDPRAGLYPGPREDYALPAGLEVSGKLRVALSNHLLWSKFNQHQTEMIITKQGRRMFPFLSFTVAGLEPTSHYRMFVDVVLVDQHHWRYQSGKWVQCGKAEGSMPGNRLYVHPDSPNTGAHWMRQEVSFGKLKLTNNKGASNNVTQMIVLQSLHKYQPRLHIVEVNDGEPEAACSASNTHVFTFQETQFIAVTAYQNAEITQLKIDNNPFAKGFRENFESMYASVDTSVPSPPGPNCQLLGGDPFSPLLSNQYPVPSRFYPDLPGQPKDMISQPYWLGTPREHSYEAEFRAVSMKPTLLPSAPGPTVPYYRGQDVLAPGAGWPVAPQYPPKMSPAGWFRPMRTLPMDPGLGSSEEQGSSPSLWPEVTSLQPEPSDSGLGEGDTKRRRISPYPSSGDSSSPAGAPSPFDKETEGQFYNYFPN

The text below walks through data of IntAct's records for PubMed 21151104.

Variants of B1 are the subject of the test. The settings on record: with runx1_mouse Runx1, Q03347.
Sequence of runx1_mouse Runx1, Q03347 (Q03347 whole entry): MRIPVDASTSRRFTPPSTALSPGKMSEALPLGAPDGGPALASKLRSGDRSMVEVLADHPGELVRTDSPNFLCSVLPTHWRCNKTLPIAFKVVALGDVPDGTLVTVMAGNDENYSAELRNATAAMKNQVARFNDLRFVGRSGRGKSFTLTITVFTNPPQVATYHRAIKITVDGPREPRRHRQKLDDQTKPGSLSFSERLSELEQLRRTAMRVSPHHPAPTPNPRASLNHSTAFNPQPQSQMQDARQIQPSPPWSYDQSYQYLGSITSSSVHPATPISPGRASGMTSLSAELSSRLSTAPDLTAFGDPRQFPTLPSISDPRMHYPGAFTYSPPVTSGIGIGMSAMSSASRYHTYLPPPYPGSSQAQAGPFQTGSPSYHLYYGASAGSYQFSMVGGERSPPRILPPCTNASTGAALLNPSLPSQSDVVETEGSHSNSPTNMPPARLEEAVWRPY
Regarding MGIVEPGCGDMLTGTEPMPSDEGRGPGADQQHRFFYPEPGAQDPTDRRAGSSLGTPYSGGALVPAAPGRFLGSFAYPPRAQVAGFPGPGEFFPPPAGAEGYPPVDGYPAPDPRAGLYPGPREDYALPAGLEVSGKLRVALSNHLLWSKFNQHQTEMIITKQGRRMFPFLSFTVAGLEPTSHYRMFVDVVLVDQHHWRYQSGKWVQCGKAEGSMPGNRLYVHPDSPNTGAHWMRQEVSFGKLKLTNNKGASNNVTQMIVLQSLHKYQPRLHIVEVNDGEPEAACSASNTHVFTFQETQFIAVTAFQNAEITQLKIDNNPFAKGFRENFESMYASVDTSVPSPPGPNCQLLGGDPFSPLLSNQYPVPSRFYPDLPGQPKDMISQPYWLGTPREHSYEAEFRAVSMKPTLLPSAPGPTVPYYRGQDVLAPGAGWPVAPQYPPKMSPAGWFRPMRTLPMDPGLGSSEEQGSSPSLWPEVTSLQPEPSDSGLGEGDTKRRRISPYPSSGDSSSPAGAPSPFDKETEGQFYNYFPN [Y304F], the “effect of a mutation on the interaction” value is “disrupting interaction”.
